# The DeepSol protein solubility set
# Assay: soluble on expression in E. coli; label from the status in PepcDB or PDB records
row,Sequence,soluble on expression in E. coli
1,MDWSEERTATLKKLWLEGLSASQVARQLGGVSRSAVIGKVHRLGITVRETPVRQRATTARAPSRISVRQRPSRDVATPRVAPRYERIEEDLLPTSGILGLGAHSCRWPIGHPENDDFGFCGRPKASARGSYCEQHSQGAFRRLSGGQALEAWALKGVKEKRIQPRLVLEHHHHHH,not soluble
2,MRDAEKTVGNMIDKLKTAFIGSIDSEGFPNMKAMLQPRKREGIKTIYLTTNTSSMRVAQYRENNHACIYFCDTRFFRGVMLRGTMEVLTDPASKEMIWQEGDTMYYPEGVTDPDYCVLKFTAISGRFYSNFKSESFAVE,not soluble
3,MRFNHFSIVDKNFDEQLAELDQLGFRWSVFWDEKKILKDFLIQSPSDMTALQATAELDVIEFLKSSIELDWEIFWNIALQLLDFVPNFDFEIGKAFEYAKNSNLPQIEAEMTTENIISAFYYLLCTRRKTGMILVEHWVSEGLLPLDNHYHFFNDKSLATFDSSLLEREVLWVESPVDSEQRGENDLIKIQIIRPKSTEKLPVVMTASPYHLGINDKANDLALHDMNVELEEKTSHEIHVEQKLPQKLSAKAKELPIVDKAPYRFTHGWTYSLNDYFLTRGFASIYVAGVGTRSSDGFQTSGDYQQIYSMTAVIDWLNGRARAYTSRKKTHEIKASWANGKVAMTGKSYLGTMAYGAATTGVEGLELILAEAGISSWYNYYRENGLVRSPGGFPGEDLDVLAALTYSRNLDGADFLKGNAEYEKRLAEMTAALDRKSGDYNQFWHDRNYLINTDKVKADVLIVHGLQDWNVTPEQAYNFWKALPEGHAKHAFLHRGAHIYMNSWQSIDFSETINAYFVAKLLDRDLNLNLPPVILQENSKDQVWTMMNDFGANTQIKLPLGKTAVSFAQFDNNYDDETFKKYSKDFNVFKKDLFENKANEAVIDLELPSMLTINGPVELELRLKLNDTKGFLSAQILDFGQKKRLEDKVRVKDFKVLDRGRNFMLDDLVELPLVESPYQLVTKGFTNLQNQSLLTVSDLKADEWFTIKFELQPTIYHLEKADKLRVILYSTDFEHTVRDNRKVTYEIDLSQSKLIIPIESVKN,soluble
4,MDSDEVRKRKEYAERKVKERHAALRKEAEEKRKHTVEHRERVQSVLKREQIALQKRMQQLNEDEERKKVTLAKQHEVSSRIAAITKSPKSFAFGSSTPRTLAYLDNLPKSEQQYDKKLRPLDQGPSQTTSPTSTTSNTTKMGRLSMTPQRAPPASHRPAPAMASMTTSMYVTSSAPSTRQAKSISKPAAVTTKKVGSMMTQSVYTPTSRPATSSRLTMKQPARGASTSAARPNTATPSSSNNRRSMDQRKPPMPRKLPFGKPEAARKSASPVAAQEPTAPVVVVAPVEAIPEVPAVQEEVLTVEEPAAPAREAVVEEAPEAVVEQEEITVAPEAVVAEEQQIAPEATPTVIEEHHNEVTVAPEAPEIQEPSEPATEPIPEPNEPKDEEIQRNEEMFHEDTSESHLESSTNTSLADELISIGIDQSQEILPSKPEILELHYPLVEEQNAVIAPVGAGEGSGVNDLIGVFGNDFINQNQPPPQQQQQQQRLVQFDEDTDSGKASPTSSETSSTTDEVTPRGAIEEEAAAEKITAPRVLPIVRSAEDIARKEKEIRESEERKSRLAAILAKSRGMASPMTNTLPPTADDIKGRCSHLHPLKRLPKRHRMSLEEQMMCSPVSLR,not soluble
5,MAHHHHHHMAKLSKQQKKQMYIEKLSSLIQQYSKILIVHVDNVGSNQMASVRKSLRGKATILMGKNTRIRTALKKNLQAVPQIEKLLPLVKLNMGFVFCKDDLSEIRNIILDNKSPAPARLGVIAPIDVFIPPGPTGMDPSHTSFFQSLGISTKIVKGQIEIQEHVHLIKQGEKVTASSATLLQKFNMKPFSYGVDVRTVYDDGVIYDAKVLDITDEDILEKFSKGVSNVAALSRATGVITEASYPHVFVEAFKNIVALIIDSDYTFPLMENIKKMVENPEAFAAVAAPASAAKADEPKKEEAKKVEEEEEEEEDGFMGFGMFD,not soluble
6,MAHHHHHHMSASPQLTRELSEDLLAGRYECVVCSEPVGHRQELWACSCCYGVFHLPCIRFWADSQMKARDRQLQSTSGVAVRGELERFRCPLCQSFKDKDSLAVYQCYCGKTAKPPADAMLVPGSCGQPCERRQADPCCPHRCTLLCHPGPCPACTRVREQACWCGKHSKTVGCSSSIHGYECDEACGKLLDCGEHRCKAPCHEGVCPVCTVMVTEKCYCGATVRTRRCGAAPPAFAGAAATAAADDRAAGDAGAGASVSGFRCAHHCEKKRDCDQHVCGMLCHPGLCEKCYRTPQRQKFCPCGKTRVQVERTSCMDPVPSCGLPCELPLPCGHLCWLTCHDETPCAPCKETVTVPCACGSRHVSSPCFCQYLPESEWEAARVQCGLPTDSLPVSVPPKCNQVCRHMLSCHKHRCTMTCCTDAEHTCLQICIRKLACGVHQCGRLCHQGKCPPCAHVSYERLYCRCRKTWVDPPVPCGMRPPQCNHPCSIPRPCGHPPNHPCHIEAECPKCVVLEEKPCASHQKPMPFHMPCYKKEISCGRKCGKNLPCCGKFCDLVCHIGPCEHDCAKSFPTLADVLKRGKGAAA,not soluble
7,MRGSHHHHHHTDPALRAENIMNNPVIGVVMCRNRLKGHATQTLQEKYLNAIIHAGGLPIALPHALAEPSLLEQLLPKLDGIYLPGSPSNVQPHLYGENGDEPDADPGRDLLSMAIINAALERRIPIFAICRGLQELVVATGGSLHRKLCEQPELLEHREDPELPVEQQYAPSHEVQVEEGGLLSALLPECSNFWVNSLHGQGAKVVSPRLRVEARSPDGLVEAVSVINHPFALGVQWHPEWNSSEYALSRILFEGFITACQHHIAEKQRLGLCGR,soluble
8,MDAYEIIQYIGDAKKQTLVKVTLKGQLKEVTFPETIKVFNNCKTGTLFGDWADVKPFLEANKEKIEDYVVENDARNSAIPFLDLKDINARIEPGALIREKVEIGDQAVIMMGAILNIGAVVGAGTMIDMGAVLGGRATVGKHCHIGAGTVLAGVIEPPSAAPVVIENEVVIGANAVVLEGVRVGEGAVVAAGAVVVEDVPAHTVVAGVPAKVIKQIDDKTKSKTEILEELRKL,soluble
9,GMSNKKLIINADDFGYTPAVTQGIIEAHKRGVVTSTTALPTSPYFLEAMESARISAPTLAIGVHLTLTLNQAKPILPREMVPSLVDEAGYFWHQSIFEEKVNLEEVYNEWDAQIISFMKSGRRPDHIDSHHNVHGKNKKLLGVALALARKYQLPLRNASRSIETKDYLELYQDVRTPDEMLYQFYDKAISTETILQLLDMVVCSEGEVFEINCHPAFIDTILQNQSGYCMPRIREVEILTSQEVKEAIEERGILLANYESLAM,soluble
10,MGSDKIHHHHHHMSNVISVENLGKKYLISHQGREPYTALRDVLTDGARAFYRRLFSPGTSQADAQAEEFWALKDVSFEVKQGDRIGIIGRNGAGKSTLLKILSRITEPTEGRVRIRGRVASLLEVGTGFHPELTGRENIFLNGAILGMNRAEIARKFDEIVAFAEIEKFLDTPVKRYSSGMYVRLAFAVAAHLEPEILIVDEVLAVGDAQFQNKCLGKMEDVSTKEGRTVLFVSHNMGAIDRLCTRAVLLERGRVRLADFTKPVIQMYLDKAKNAISAWSCSTSIPDFDGIFFESISIVNKDRKIAEVLPSNEPFSITLVVNATASLKGVQIAIRITNEQGIPILTTTNCDKAGKLQEISRGRYRYTVSLPASFLPPGYYTLIVASFVPGEKLFDGVEDKLGFCIDDMGSLATLMKDGRLGVVTPLMPWDEVRL,not soluble
11,MTQQEYQNRRQALLAKMAPGSAAIIFAAPEATRSADSEYPYRQNSDFSYLTGFNEPEAVLILVKSDETHNHSVLFNRIRDLTAEIWFGRRLGQEAAPTKLAVDRALPFDEINEQLYLLLNRLDVIYHAQGQYAYADNIVFAALEKLRHGFRKNLRAPATLTDWRPWLHEMRLFKSAEEIAVLRRAGEISALAHTRAMEKCRPGMFEYQLEGEILHEFTRHGARYPAYNTIVGGGENGCILHYTENECELRDGDLVLIDAGCEYRGYAGDITRTFPVNGKFTPAQRAVYDIVLAAINKSLTLFRPGTSIREVTEEVVRIMVVGLVELGILKGDIEQLIAEQAHRPFFMHGLSHWLGMDVHDVGDYGSSDRGRILEPGMVLTVEPGLYIAPDADVPPQYRGIGIRIEDDIVITATGNENLTASVVKDPDDIEALMALNH,not soluble
12,MGSDKIHHHHHHMATENKIKYFENREDWRKWLMDNFETEDEIWFVFPLKSSGEKSIAYNDAVEEALCFEWIDSTIKPLDKEHRIQRFTPRKPKSTYSQANKERLKWLLANKMIHPEFEDKIRTVLSDPFIFPNDIMDRLKEDEIAWRNYRHFSDAYKRIRIAYIEAARKRPEEFEKRLNNFICKVKENKMITGFGGIEKYY,not soluble
13,MGSDKIHHHHHHMSFPTIPDITPTISINRSDVINLLLASIAFEELGLAHIINAEAEKIQYILGTLSEQVPTEPPTQDDLIEINKSVNQTLRTVIKNQMLLQFKLEDLIVENPLPSITIKKYVSGDGGVTWYDADSPPGPTIDPEQVPMFRFVITNTGNVILTGVTVTDSVLGLISTGGILPPGAFFEEYRSGEYLGGDQSNTATVIGYYLDQQVEDSDVAYYTEPT,not soluble
14,SLPWLHRETARSFGGAGSTAGYEQVTAYTLTGQLQSRHLNLPQLDCDYDWNDNGQLIRISGPQESREYRYSDTGRLTGVHTTAANLDIDIPYATDPAGNRLPDPELHPDSTLTAWPDNRIAEDAHYVYRYDEYGRLTEKTDRIPEGVIRMHDERTHHYHYDNQHRLVFYTRIQYGEPLVESRYLYDPLGRRTGKRVWRRERDLTGWMSLSRKPEVTWYGWDGDRLTTVQTGTTRIQTVYRPGSFTPLIRIETENGEREKAQRRSLAEKLQQEGSEDGHGVVFPAELVRMLDRLEEEIRADRVSSESRAWLAQCGLTVEQLEKQVEPEYTPARTLHLYHCDHRGLPLALISEDGNTAWSAEYDEWGNQLNEENPHHLHQPYRLPGQQHDEESGLYYNRHRYYDPLQGRYITPDPIGLRGGWNMYQYPLNPIQVIDPMGLDAIENMTSGGLIYAVSGVPGLIVANSITNSAYQFGYDMDAIVGGAHNGAADAMRYCYLMCRMTKT,not soluble
15,MSLKITAARVIITCPGRNFVTLKIETDQGVYGIGDATLNGRELSVVAYLAGTRRALPHRHGPAPHRGHLAVCLSRAYWRAPARLTMRAIAAVDMALWDIKAKMAGMPLYQLLGGRSRDGIMVYGHANGSDIAETVEAVGHYIDMGYKAIRAQTGVPGIKDAYGVGRGKLYYEPADASLPSVTGWDTRKALNYVPKLFEELRKTYGFDHHLLHDGHHRYTPQEAANLGKMLEPYQLFWLEDCTPAENQEAFRLVRQHTVTPLAVGEIFNTIWDAKDLIQNQLIDYIRATVVGAGGLTHLRRIADLASLYQVRTGCHGATDLSPVTMGCALHFDTWVPNFGIQEYMRHTEETDAVFPHDYWFEKGELFVGETPGHGVDIDEELAAKYPYKPAYLPVARLEDGTMWNWEGHHHHHH,not soluble
16,MAFNTPTLSTLIKQGEQQFQYRFPTLKRHNVIGVINRICAALSAGEHMHLDWLARQIIPTTAEEDYLIEYCLYKGIVRKQASTATGLVTVTAANDTTIPAGTVFEDTNTGLTFITTQETVVKAGTADIAVKCETTGVEGNLKAGTSLSLTSAILGLLPTATVKVMSGGADIESLSRLLARLIYRVQYPPAGGASHDYIRWATEVPGVTRAWCFERYYGGGTVGVAFACDEREDILPTPEDIARVRAYIEGHKNEVTGQFEGMPANVELYVFAPQFQAVNFKIRLAPNTPTLRQAVRKSLAAYLANAGVGALLYLSQIRATVSNTAGEVDNSVIFPTADVQLLSDNIAILGDIEWL,not soluble
17,AHKLFIGGLPNYLNDDQVKELLTSFGPLKAFNLVKDSATGLSKGYAFCEYVDINVTDQAIAGLNGMQLGDKKLLVQRASVGAKNA,soluble
18,MSRVRTKTVKKASRVLIEKYYTRMTNDFHNNKRVCDEVAIIGSKPLRNKIAGYITHLMRRIERGPVRGISIKLQEEERERRDNYMPEISTVDPSQLTSIKVDTDTSDMLKAAGFNLPNVTVEDQGKNKGK,not soluble
